Sequences and labels used below:
B1: PDS5B (parent)
chain: IYKKYALQSAAGKDAAKQIAWIKD
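Also: lentivirally expressed fusions sorted by FACS into six bins by GFP to DsRed ratio, PSI derived from sequencing read proportions per bin multiplied by bin number.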

In this data set the parent is B1. Briefly: protein stability index of a GFP-peptide fusion (GPS, HEK-293T) (PSI 1-6); higher = more stable. The settings on record: c terminus: a fixed tail appended.
Turning to D14I, the protein stability index came out at 1.82. As for D14E, the figure is 2.1; as for D14N, 2.19.

D14P: the protein stability index amounted to 2.34. Next, D14A: 1.9.

As to D14K, the protein stability index amounted to 2.28. On to I22M, for which the protein stability index came to 2.14. Regarding I22C, the protein stability index stood at 2.75.

As for I22R, the protein stability index worked out at 3.43.

On to L7C, for which the protein stability index came out at 1.93. Next, L7I: 1.95; L7G: 2.42; A20W: 2.68. On to A20V, for which the protein stability index amounted to 2.08.

On to A20S, for which the protein stability index stood at 2.4. As for A20C, the figure is 2.18; as for A20D, 3.39; as for A20Q, 2.29. Next, G12Q: 1.58; D24A: 2; D24N: 2.24.

For the variant D24Y, the protein stability index was found to be 1.14. As for D24F, the figure is 2.15; as for D24Q, 1.7; as for Y5I, 2.26.

Regarding Y5S, the protein stability index came to 2.65. For Y5G, the protein stability index was 2.82. As for Y5P, the figure is 3.63; as for A15N, 2.5; as for A15W, 1.43. As for A15P, the figure is 2.56; as for A6C, 1.85. As for A6T, the figure is 2.39. As to A6Y, the protein stability index stood at 1.52. Turning to A6L, the protein stability index turned out to be 1.86.

With W21R, the protein stability index stood at 2.74.

Take Q8D: the protein stability index amounted to 2.27. With Q8H, the protein stability index was 1.83. As for Q8R, the figure is 2.21; as for Q8A, 2.4; as for I1F, 1.68. In the case of I1G, the protein stability index is 2.81. Regarding I1M, the protein stability index is 2.08. Take I1H: the protein stability index was 3.36. As for I1R, the figure is 2.5; as for A10S, 2.36.

On to K17T, for which the protein stability index was determined as 2.92. As for K17E, the figure is 3.42. Next, K13R: 2.77; K13M: 2.17; K13E: 2.55. Consider K13D, for which the protein stability index was found to be 2.6. In the case of Q18N, the protein stability index is 2.49. Next, S9Y: 1.75; S9G: 2.17; S9A: 2.16.

As to S9I, the protein stability index was determined as 1.93. Take K3Y: the protein stability index stood at 2.19. For the variant K3V, the protein stability index is 1.75. As for K3C, the figure is 1.51; as for K3F, 2.15. For K3A, the protein stability index amounted to 2.26. As for K4W, the figure is 1.35; as for K4D, 3.24. Next, K4G: 2.61; K4T: 2.7.

As to K4I, the protein stability index turned out to be 2.44.

Turning to K23R, the protein stability index worked out at 1.52. Next, K23Y: 2.44; K23P: 2.36; K23C: 1.47. As for K23L, the figure is 3.36; as for K23S, 2.98; as for A11Y, 1.8.

Regarding A11W, the protein stability index was 1.82. Turning to A11L, the protein stability index was determined as 1.8. Next, A11F: 1.75; I19M: 1.97; I19V: 2.49. I19H: the protein stability index came out at 3.34. Next, I19Q: 2.52. Take Y2D: the protein stability index came to 3.75. As for Y2A, the figure is 2.32; as for Y2W, 2.32. As for Y2P, the figure is 3.19. In the case of A16M, the protein stability index stood at 2.02. Next, A16R: 2.12; A16C: 2.16.

Take A16E: the protein stability index was determined as 2.82.

Values taken from the supplement of paper PMC10567573.
